Test results: the supplement of paper PMC9170038

Tested on: MS2 coat protein
Assay: apparent KD of MS2 coat protein; designed switch direction (-1 OFF switch, 1 ON switch): -1; higher = weaker reporter binding
Summary of the method: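 Designed RNA switches with common flanks were made on Illumina chips by stalled E. coli RNA polymerase. Titration with SNAP-549-labelled MS2 coat protein doubled from 0.7 or 1.5 nM up to 3 µM. Apparent KD is each design's median over clusters after curve-fitting normalised fluorescence.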

[1] = input ligand: microRNA oligo, concentration not stated
[2] = Eterna round: R95, input ligand: microRNA oligo, concentration not stated
[3] = Eterna round: R95, input ligand: FMN 200 uM
[4] = Eterna round: R95, input ligand: none

Sequence	apparent KD of MS2 coat protein (input ligand: FMN 200 uM) [nM]	apparent KD of MS2 coat protein (input ligand: none) [nM]	apparent KD of MS2 coat protein [2] [nM]	other results
UGUUGUUGCGCAGGAUAUUGCCAACAGGCAGUAGGAUAUCCGAAAGGAGAAGGACCGCCAACAGGCGAGAAGGGCGGGACAACU [pwkr exNG2 2xF7 2xFMN.12] (Eterna round: R96, puzzle: Exclusion NG 2)	93.9	64.3		apparent KD of MS2 coat protein [1]: 44.5 nM
GGAAAGUGAGGAUAUGGUAAAGUAAGUAUGUAGUAAGUAAUCCAGAAGGCACAUGAGGAUCACCCAUGUAAAUG [Mat - Exclusion 4 - D100] (puzzle: Exclusion 4)			27.2	
AAUAAAGGCCGAGGAUAUCGGAAAGGAAGUGUACGAGAAGGCGGCAAAAGAACAUGAGGAUCACCCAUGUGGGCCGAUCUUCCG [PowerStrip EXNG 1.2] (Eterna round: R96, puzzle: Exclusion NG 1)	26.4	18		apparent KD of MS2 coat protein [1]: 10 nM
CCGGAAAUACAGGAUAUAGGAGUCAAUAGACUCCUAGAAGGGUAUACAUGAGGAUCACCCAUGUGUCCUACCGG [Fiskers Ex 6 - 66] (puzzle: Exclusion 6)			25.1	
AGCGCCAUCGUGAGAUGGCGUAUUACAUGAGGAUCACCCAUGUAGGAUAUCGAUUGCUUUGCAGUCGAGAAGGACAUGUUCUUC [JL ENG3 3.80 Mod C] (Eterna round: R96, puzzle: Exclusion NG 3)	66	23.2		apparent KD of MS2 coat protein [1]: 16 nM
CCCAACGUAACAGGAUAUGCUGUUGAGGCCGGGCGACCUACAUGAGGAUCACCCAUGUCGAAAUGGCAGAAGGGUUGCCGGGUA [Quatin] (Eterna round: R96, puzzle: Exclusion NG 2)	315	94.4		apparent KD of MS2 coat protein [1]: 61.9 nM
UAUAUAUAGUAAGGAUAUGUAAUUAUUUUAUAGACAGAAGGUACUGACAUGAGGAUCACCCAUGUUUUAGUGUGGGCAUGUAGA [JMF's solution 50] (Eterna round: R96, puzzle: Exclusion NG 1)				apparent KD of MS2 coat protein [1]: 60.9 nM
UUAAAUCAUGUAGGAUAUGCGUGGCGAAGCUAUGCAGAAGGACAUGAGGAUCACCCAUGUUCUAGCGUCUGCGUACAGAUGCAA [JL ENG1 1.10] (Eterna round: R96, puzzle: Exclusion NG 1)	93.1	17.5		apparent KD of MS2 coat protein [1]: 17.5 nM
GAGAAGGUAGGAUAUACGAAGAAAAAGGGUAGAAGAAGAACACAUGAGGAUCACCCAUGUAGAAGGACCAAGAG [Mat - Exclusion 2 - Mod of my Tesla design - D17] (puzzle: Exclusion 2)			21.5	apparent KD of MS2 coat protein [3]: 38 nM; apparent KD of MS2 coat protein [4]: 22.5 nM
AACAGUCUGGAGGAUAUGCUGGAUUAAUAUCUGGCAGAAGGCUUGACAUGAGGAUCACCCAUGUAAAUACUACC [Omei Ex6 A3] (Eterna round: R97, puzzle: Exclusion 6)	25.9	20.8		
AGUUGGCGAGGAUAUACAUGAGGAUCACCCAUGUGAAAUAUAAGAGUGAGGAAGAAAAGUAGAAGGCGCUGACA [Mat - Exclusion 3 - Mod of Salish D43] (puzzle: Exclusion 3)			80.4	
AAGAGGAUCGGAGGAUAUGGAGCUGAAACGGCGCUAGAAGGCCGUCCAGUGUAACAUGAGGAUCACCCAUGUAGGGACCUCUAA [EX ng 1 4.1] (Eterna round: R96, puzzle: Exclusion NG 1)	314	102		apparent KD of MS2 coat protein [1]: 65.5 nM
GCCACCACAUGAGGAUCAAACAUGAGGAUCACCCAUGUAUAACAAGCUUUUUGCUCGUCUUAUAAAUAUGUGGUGGC [Electric Eye 4 - Jieux - Sensor, turn-off variant 1] (Eterna round: R97, puzzle: Sensor, turn-off variant 1)	14	15.3		
AAUAAGCAAGGAUAUACGACGCAGAGCGUCAGUGGGCGAUGACAUGAGGAUCACCCAUGUAGAAGGUGCACAUC [Veisbebi] (puzzle: Exclusion 2)			81.5	
GCAGGAUAAGUGAGGAUAUACCUCUGGAUACAGAGGUAGAAGGCACAUGAGGAUCACCCAUGUCUAUAACCUGC [Fiskers BMX 4 - 79] (puzzle: Brourd's mod of Exclusion 4)			12.5	
AAUAAACUAGGAUAUACAUGAGGAUCACCCAUGUGUCGCCACGUGCUUGCUCACUCGUGUAGAAGGAGUACGGA [Atisan] (puzzle: Exclusion 3)			33.4	
UUCAUGUGAGGAUAUGUGAUCUGCUUUCUGUGUAGAUGAUCACAGAAGGCACAUGAGGAUCACCCAUGUAGAUC [Ex4 - 3 - 29] (puzzle: Exclusion 4)			77.3	
GAUUAGAUAGGAUAUACAGGCUCGUCUUUAUAUUGAUCCCGACAUGAGGAUCACCCAUGUAGAAGGAUUAGAUU [Mod 30 - Jieux - Exclusion 2] (Eterna round: R97, puzzle: Exclusion 2)	25.7	26.6		

Sequence	apparent KD of MS2 coat protein (input ligand: FMN 200 uM) [nM]	apparent KD of MS2 coat protein (input ligand: none) [nM]	apparent KD of MS2 coat protein [2] [nM]	other results
UGCAUGCUAGGAUAUACGGGACAUUAGGGUUCGUUGUAUGGACAUGAGGAUCACCCAUGUAGAAGGAGCGUGCU [Mod5 of JL-ex2-2.15 mat747 mod] (puzzle: Exclusion 2)			26	
CUUUCGUGAGGAUAUCAGUAGUAAAUAAAUAAAAUUACUACUGAGAAGGCACAUGAGGAUCACCCAUGUUCCUU [salish99_ex3_r3_095] (puzzle: Exclusion 4)			12.9	
CCUAGCCUAAAAUCACGCAAGCUUUUUGCUUGUCUUAAGACAUGAGGAUCACCCAUGUCCGGGCUGAACUUAUGGAA [Veorxe] (puzzle: Sensor v3, turn-off variant 2)			23.2	apparent KD of MS2 coat protein [3]: 17.8 nM; apparent KD of MS2 coat protein [4]: 16.6 nM
GAUUAAUGCAAGGAUAUGCUAUUAUUUUAUUUUGCAGAAGGUGCAACAUGAGGAUCACCCAUGUUGGAGGGUAU [JR_E6_Sub026] (puzzle: Exclusion 6)			17.4	
UUUAAUUUUUUUUUUUUACAAGCUUUUUGCUCGUCUUAUACAUGAGGAUCACCCAUGUGGGUGAGGAGUAAAUUAUC [JMF 61] (puzzle: Sensor v3, turn-off variant 2)			19.1	apparent KD of MS2 coat protein [3]: 37.9 nM; apparent KD of MS2 coat protein [4]: 66.7 nM
ACUCGCACUGUAAGGAUAUGCAAUUACGAAAGUGAGCAGAAGGUACAUGAGGAUCACCCAUGUGCGAAUCAGUG [Eternabot (Original) Solution 36] (Eterna round: R97, puzzle: Brourd's mod of Exclusion 4)	18.9	20		
CCAUCGAGUGUGAGGAUAUGCUGGUCCUUGGAUCAGCAGAAGGCACAUGAGGAUCACCCAUGUGAAUACGGUGG [JL bmx4 3.20] (puzzle: Brourd's mod of Exclusion 4)			28.3	
GCUGGUCGAGGAUAUACAUGAGGAUCACCCAUGUUGAUCAACUGCCGAUAGGCAGAAUGUAGAAGGCGACCAGC [E3/7-A1] (Eterna round: R97, puzzle: Exclusion 3)	137	1110		
AUAAAACAUGUAGGAUAUGCGUAGCGAAGCUAUGCAGAAGGACAUGAGGAUCACCCAUGUCUUUCCGUCUGCGAACAGACGGAA [Mat - Exclusion NG 1 - Mod of JL - D44] (Eterna round: R96, puzzle: Exclusion NG 1)	35.7	21		apparent KD of MS2 coat protein [1]: 13.8 nM
CUUUUGUGAGGAUAUUAAUAGUAAGUAAAUAAAAUUAUUACUAAGAAGGCACAUGAGGAUCACCCAUGUUCCUC [EX4 #82] (Eterna round: R97, puzzle: Exclusion 4)	102	63.4		
ACAUGAGGAUCACCCAUGUACAGGGUUUAGUUUCAUCGUUUGAAGGAUAUACACUGUUAGUUGUCGUAGAAGGUCACUGAUUGG [JR_ExcNG3_Sub010] (Eterna round: R96, puzzle: Exclusion NG 3)	93.9	130		apparent KD of MS2 coat protein [1]: 93.3 nM
AAGAAACAUGAGGAUCACCCAUGUGAGGAUAUGACUAAGAAAAGAAAAGAAAGAAGAUUCAGAAGGCACAAAGG [salish99-ex1_r3_062] (puzzle: Exclusion 1)			42.3	apparent KD of MS2 coat protein [3]: 91.2 nM; apparent KD of MS2 coat protein [4]: 46.1 nM
CGGUACUGAGGAUAUACAUGAGGAUCACCCAUGUGUUCCAGCUAGCGUACUGGCAUUUGUAGAAGGCGGUGCUG [JL-ex3-3.22 Brourd mod] (puzzle: Exclusion 3)			16	
AAAAGCCUAGGAUAUACUUGAGGAUCACCCAAGUAGGGUCCCAUGGACCCGUCCUCGUGUAGAAGGAGGAAAAG [Dierlabe] (Eterna round: R97, puzzle: Exclusion 3)	156	60.5		
AGUACUAUGCGUGCUGACAUGCGUAGUGCAGCAGGUGUAACAUGAGGAUCACCCAUGUCCUCAUUUGCUCGUCUUAA [Mat - Sensor v3 - Turn-off var 2 - D13] (puzzle: Sensor v3, turn-off variant 2)			224	apparent KD of MS2 coat protein [3]: 107 nM; apparent KD of MS2 coat protein [4]: 129 nM
GGCUGCAAUGUAGGAUAUCUGCACGUUUAGUGCAGAGAAGGACAUGAGGAUCACCCAUGUAUAGUAGCUUCGGCUACAGCAGCC [ENG1-D2] (Eterna round: R96, puzzle: Exclusion NG 1)	18.4	17.2		apparent KD of MS2 coat protein [1]: 11.4 nM
GUGUACGAAGGAUAUACAUGAGGAUCACCCAUGUGAAUAAGAUAGAAUAAGAUAAAGUGUAGAAGGUCGAGUGU [Excluse me!!! 7 - Jieux - Exclusion 3] (puzzle: Exclusion 3)			27.1	
